The results in this text go back to the supplement of paper PMC10567573.

Sequences and labels used below:
B1: FAM189A2 (parent)
chain: VAAALRYLQIFATRRSCIDESQIS
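Further: lentivirally expressed fusions sorted by FACS into six bins by GFP to DsRed ratio, PSI derived from sequencing read proportions per bin multiplied by bin number.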

The data set covers variants of B1. Put plainly: protein stability index of a GFP-peptide fusion (GPS, HEK-293T) (PSI 1-6); higher = more stable. The conditions noted are these: c terminus: a fixed tail appended.
For VAAALRYLQIFATRRSCIDESQIF, the protein stability index stood at 3.22. Turning to VAAALRYLQIFATRRSCIDESQIP, the protein stability index was determined as 4.3. On to VAAALRYLQIFATRRSCIDESQIH, for which the protein stability index was 2.29. As for VAAALRYLQIFASRRSCIDESQIS, the figure is 1.76; as for VAAALRYLQIFANRRSCIDESQIS, 1.99; as for VAAALRYLQIFAKRRSCIDESQIS, 2.61. For the variant VAAALRYLQIFAERRSCIDESQIS, the protein stability index amounted to 2.07. Consider VAAALRYLQIFAHRRSCIDESQIS, for which the protein stability index worked out at 2.75. As for VAAALRYLQIFADRRSCIDESQIS, the protein stability index amounted to 1.52.

Take VAAALRYLQIFAQRRSCIDESQIS: the protein stability index was determined as 2.08. As for VAAALRYLQIFAFRRSCIDESQIS, the figure is 2.78; as for VAAALRGLQIFATRRSCIDESQIS, 2.02.

On to VAAALRLLQIFATRRSCIDESQIS, for which the protein stability index was 2.68. Regarding VAAALRCLQIFATRRSCIDESQIS, the protein stability index worked out at 2.06.

For VAAALRTLQIFATRRSCIDESQIS, the protein stability index came to 2.49.

On to VAAALRQLQIFATRRSCIDESQIS, for which the protein stability index is 2.64. The result for VAAALRRLQIFATRRSCIDESQIS reads 1.85. The result for VAAALRDLQIFATRRSCIDESQIS reads 1.76. As to VAAALRPLQIFATRRSCIDESQIS, the protein stability index was found to be 2.04. The result for VAAALRKLQIFATRRSCIDESQIS reads 1.63. The result for VAAALRELQIFATRRSCIDESQIS reads 2.41. Take VAAALRALQIFATRRSCIDESQIS: the protein stability index worked out at 1.95. The result for VAAALRYLQIFATRRSCIDEMQIS reads 3.11.

Regarding VAAALRYLQIFATRRSCIDEPQIS, the protein stability index came to 1.97. Consider VAAALRYLQIFATRRSCIDEGQIS, for which the protein stability index stood at 1.83. As for VAAALRYLQIFATRRSCIDELQIS, the protein stability index is 2.45. The result for VAAALRYLQIFATRRSCIDEKQIS reads 2.61. As for VAAALRYLQIFATRRSCIDETQIS, the figure is 2.03; as for VAAALRYLQIFATRRSCIDEYQIS, 4.49; as for VAAALRYLQIFATRRSCIDESQQS, 1.88. The result for VAAALRYLQIFATRRSCIDESQSS reads 1.84; that for VAAALRYLQIFATRRSCIDESQAS, 1.24; that for VAAALRYLQIFATRRSCIDESQDS, 1.77. Regarding VAAALRYLQIFATRRSCIDESQPS, the protein stability index was 2.46. Take VAAALRYLQIFATRRSCIDESQWS: the protein stability index was found to be 1.87. The result for VAAALRYLQIFATRRSCIDESQCS reads 1.73; that for VAAALRYLQIFATRRSCIDESQGS, 1.52. Regarding VAAALRYLQIFATRRLCIDESQIS, the protein stability index came out at 2.4. As for VAAALRYLQIFATRRKCIDESQIS, the figure is 2.15. As for VAAALRYLQIFATRRDCIDESQIS, the protein stability index is 1.8. As for VAAALRYLQIFATRRMCIDESQIS, the figure is 3.14; as for VAAALRYLQIFATRRGCIDESQIS, 1.41; as for VAAALRYLQIFATRRWCIDESQIS, 2.37. As for VAAALRYLQIFATRRTCIDESQIS, the figure is 2.29.

VAYALRYLQIFATRRSCIDESQIS: the protein stability index was 3. The result for VAHALRYLQIFATRRSCIDESQIS reads 2.27; that for VAFALRYLQIFATRRSCIDESQIS, 1.83. As for VATALRYLQIFATRRSCIDESQIS, the figure is 4.19. In the case of VARALRYLQIFATRRSCIDESQIS, the protein stability index was found to be 1.71. On to VASALRYLQIFATRRSCIDESQIS, for which the protein stability index turned out to be 1.97. As to VAQALRYLQIFATRRSCIDESQIS, the protein stability index was found to be 1.8.

As for VAPALRYLQIFATRRSCIDESQIS, the protein stability index was found to be 1.52. Take VAAALRYLQMFATRRSCIDESQIS: the protein stability index came to 2.68. With VAAALRYLQDFATRRSCIDESQIS, the protein stability index was found to be 2.24. The result for VAAALRYLQQFATRRSCIDESQIS reads 2.37. Take VAAALRYLQAFATRRSCIDESQIS: the protein stability index amounted to 1.73. The result for VAAALRYLQCFATRRSCIDESQIS reads 1.72; that for VAAALRYLQHFATRRSCIDESQIS, 1.7. As for VAAALRYLQGFATRRSCIDESQIS, the figure is 1.87; as for VAAALRYLQKFATRRSCIDESQIS, 2.73. As for VAAALRYLQFFATRRSCIDESQIS, the figure is 1.73; as for VAAALRYLQVFATRRSCIDESQIS, 1.69; as for VAAALRYIQIFATRRSCIDESQIS, 1.98. For the variant VAAALRYRQIFATRRSCIDESQIS, the protein stability index was 1.84.

Take VAAALRYEQIFATRRSCIDESQIS: the protein stability index is 2.04.

As to VAAALRYCQIFATRRSCIDESQIS, the protein stability index turned out to be 2.81.

Consider VAAALRYHQIFATRRSCIDESQIS, for which the protein stability index came to 2.08. Consider VAAALRYVQIFATRRSCIDESQIS, for which the protein stability index was determined as 2.6. The result for VAAALRYNQIFATRRSCIDESQIS reads 2.14; that for VAAALRYQQIFATRRSCIDESQIS, 1.6.

For VAAALRYPQIFATRRSCIDESQIS, the protein stability index is 1.68. As for VAAALRYLQIWATRRSCIDESQIS, the figure is 2.83; as for VAAALRYLQINATRRSCIDESQIS, 1.34. As for VAAALRYLQIRATRRSCIDESQIS, the figure is 2.63; as for VAAALRYLQIFATRRSCLDESQIS, 2.57. As for VAAALRYLQIFATRRSCEDESQIS, the figure is 3.15; as for VAAALRYLQIFATRRSCGDESQIS, 2.2; as for VAAALRYLQIFATRRSCNDESQIS, 2.27.

Consider VAAALRYLQIFATRRSCDDESQIS, for which the protein stability index stood at 2.02. As for VAAALRYLQIFATRRSCCDESQIS, the figure is 2.3. Turning to VAAALRYLQIFATRRSCFDESQIS, the protein stability index was 4.04.

VAAALRYLQIFATRFSCIDESQIS: the protein stability index is 2.52. With VAAALRYLQIFATRYSCIDESQIS, the protein stability index is 2.55. On to VAAALRYLQIFATRESCIDESQIS, for which the protein stability index was determined as 2.13. For VAAALRYLQIFATRMSCIDESQIS, the protein stability index came to 1.28. As for VAAALRYLQIFATRVSCIDESQIS, the figure is 2.81.

For VAAALRYLQIFATRDSCIDESQIS, the protein stability index came out at 1.88.

Turning to VAAALRYLQIFATRQSCIDESQIS, the protein stability index was 1.67.

For VAAALRYLQIFATTRSCIDESQIS, the protein stability index was determined as 2.5. As for VAAALRYLQIFATQRSCIDESQIS, the figure is 1.91; as for VAAALRYLQIFATKRSCIDESQIS, 1.79; as for VAAALRYLQIFATSRSCIDESQIS, 2.38. As for VAAALRYLQIFATPRSCIDESQIS, the figure is 2.78; as for VAAALRYLQIFATMRSCIDESQIS, 1.56.
